From US20230340114A1 (IMMUNE ONC THERAPEUTICS, published 2023)
Read-outs that look alike come from different tables or passages of the source.

T1: recombinant cyno CD3e (Acro, cat #CDE-C5226) (cynomolgus monkey, UniProt Q95LI5 22-117)
T1 sequence (looked up): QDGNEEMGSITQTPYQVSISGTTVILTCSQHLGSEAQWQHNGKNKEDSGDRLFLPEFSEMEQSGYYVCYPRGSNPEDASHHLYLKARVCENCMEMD


Legend:
[1] = target: T2, recombinant human LILRB4 protein (Sino Biological, cat #16742-H08H) (human, UniProt Q8NHJ6 22-259); assay: SPR (Biacore 8K), LILRB4 immobilized on CM5 chip, bispecific as analyte, 1:1 model
T2 construct: extracellular domain; also called LILRB4 recombinant protein (Sino Biological); Human LILRB4 ECD-his; not shown: his tag
Experimental: (§1) Binding affinities of first-generation bispecific antibodies to recombinant CD3e-CD3d heterodimer protein (Acro Biosystems) or LILRB4 recombinant protein (Sino Biological) were measured by surface plasmon resonance using a Biacore 8K instrument. Briefly, CD3e-CD3d or LILRB4 protein was immobilized on a CM5 chip with EDC and NHS according to standard protocols. […] The chip was regenerated using 10 mM glycine pH 1.5 as the regeneration buffer. The sensorgrams for reference channel Fc1 and buffer channel were subtracted from the test sensorgrams and the experimental data was fitted by 1:1 binding model.

[2] = target: T3, human LILRB4 expressed on cells (human, UniProt Q8NHJ6 22-448); assay: cell-based or functional assay
[3] = target: recombinant CD3e-CD3d heterodimer protein (Acro Biosystems) (UniProt P07766 23-126; P04234 22-105); assay: SPR (Biacore 8K), CD3e-CD3d immobilized on CM5 chip, bispecific as analyte, 1:1 model
Chain of recombinant CD3e-CD3d heterodimer protein (Acro Biosystems) (P07766 23-126 limits assumed, chain 1 of 2): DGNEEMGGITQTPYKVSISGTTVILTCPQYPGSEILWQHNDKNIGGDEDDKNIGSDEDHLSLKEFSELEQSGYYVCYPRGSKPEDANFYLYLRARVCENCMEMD
Chain of recombinant CD3e-CD3d heterodimer protein (Acro Biosystems) (P04234 22-105 limits assumed, chain 2 of 2): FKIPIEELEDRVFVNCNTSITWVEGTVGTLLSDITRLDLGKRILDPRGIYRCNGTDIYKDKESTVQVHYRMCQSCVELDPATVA
Experimental: as §1

[4] = target: T3, human LILRB4 expressed on cells; assay: FACS (Geo MFI) on normal human monocytes; panel assigned to monocytes by the order in legend paragraph 86
CD3 on Jurkat cells = target: T4, CD3 on Jurkat cells (UniProt P07766 23-207); assay: FACS on CD3+ Jurkat cells; estimated, curve did not reach a plateau
T4 construct: whole, on cells; on cells it stands in the whole CD3/TCR complex; also called CD3+ Jurkat cells
T4 sequence (P07766 23-207): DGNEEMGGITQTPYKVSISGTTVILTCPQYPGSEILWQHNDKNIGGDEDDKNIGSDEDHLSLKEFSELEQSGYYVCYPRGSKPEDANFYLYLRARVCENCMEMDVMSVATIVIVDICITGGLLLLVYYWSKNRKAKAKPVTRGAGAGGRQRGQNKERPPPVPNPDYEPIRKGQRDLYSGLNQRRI

[5] = target: T1, recombinant cyno CD3e (Acro, cat …); assay: BLI (Gator Bio), bispecific captured on anti-human Fc probe, cyno CD3e in solution, 1:1 global fit
Experimental: (§2) Binding affinities of second-generation bispecific antibodies were measured to recombinant human CD3e (Acro, cat #CDE-H5223), cyno CD3e (Acro, cat #CDE-C5226), human LILRB4 (Sino Biological, cat #16742-H08H), and cyno LILRB4 (Acro, cat #CDK-C5227) by Bio-Layer Interferometry (BLI) using an instrument from Gator Bio. Bispecific antibodies were captured using an immobilized anti-human Fc antibody (HFC) probe (Gator Bio, cat #PL168-160003) at 5 ug/mL load. […] Binding affinity constants were determined using a 1:1 fitting model (Global Fit) with Gator's data analysis software 1.6.1.1203, and the KD was calculated using the ratio Kdis/Kon.

[6] = target: T5, recombinant cyno LILRB4 (Acro, cat #CDK-C5227) (cynomolgus monkey); assay: BLI (Gator Bio), bispecific captured on anti-human Fc probe, cyno LILRB4 in solution, 1:1 global fit
T5 construct: extracellular domain; also called cynomolgus monkey LILRB4 ECD-his recombinant protein (ACRObiosystems)
Experimental: as §2

[7] = target: T2, recombinant human LILRB4 protein (Sino …); assay: BLI (Gator Bio), bispecific captured on anti-human Fc probe, human LILRB4 in solution, 1:1 global fit
Experimental: as §2

[8] = target: recombinant human CD3e (Acro, cat #CDE-H5223) (human, UniProt P07766 23-126); assay: BLI (Gator Bio), bispecific captured on anti-human Fc probe, human CD3e in solution, 1:1 global fit
Chain of recombinant human CD3e (Acro, cat #CDE-H5223) (P07766 23-126 limits assumed): as the sequence (P07766 23-126 limits assumed, chain 1 of 2) above
Experimental: as §2

[9] = target: T3, human LILRB4 expressed on cells; assay: cell-based or functional assay; remark: listed apart in the source
[10] = target: T3, human LILRB4 expressed on cells; assay: FACS on LILRB4+ THP-1 cells, Alexa 647 anti-human IgG Fc detection
Experimental: Binding of first and second generation bispecifics to CD3 or LILRB4 was measured by FACS on Jurkat cells or THP-1 cells. To measure binding of bispecifics to THP-1 cells, THP-1 cells were first incubated with human Fc blocker (BD Pharmingen Catalog No. 564220) at 10 ug per one million cells at room temperature for 10 minutes, followed by incubated with serially diluted bispecifics for 30 minutes on ice. Cells were washed twice with BSA staining buffer (BD Pharmingen Catalog No. 554657) and incubated with secondary Alexa 647 conjugated anti-human IgG Fc monoclonal antibody (Biolegend Catalog No. 409306) at 5 ug/mL for 30 minutes on ice. After final wash, 7-AAD was applied to exclude dead cells. To measure binding of first generation bispecifics to Jurkat cells, each bispecific was diluted in buffer including 1% BSA (5-fold dilution series, 400 nM highest concentration) and incubated with cells for 30 minutes at 4° C. Then bispecifics were stained with Alexa 647 anti-human IgG Fc at 5 ug/mL at 4° C. for 0.5 hours before analysis.

Binder	Kd [1] [pM]	Monocyte (max %), Donor 1 [2] [%]	Monocyte (max %), Donor 2 [2] [%]	Monocyte (max %), Donor 3 [2] [%]	Kd [3] [pM]	EC50 (read off the curve) [4] [pM]	EC50 (CD3 on Jurkat cells) [pM]	Kd [5] [pM]	Kd [6] [pM]	Kd [7] [pM]	Kd [8] [pM]	EC50 [10] [pM]	Monocyte killing EC50, Donor 2 [2] [pM]	Monocyte killing EC50, Donor 3 [2] [pM]	T-cell cytotoxicity, THP-1 (max %) [2] [%]	T-cell cytotoxicity, THP-1 EC50 [2] [pM]	Autologous monocyte killing EC50 [9] [pM]	T-cell cytotoxicity, MV4-11 EC50 [9] [pM]	T-cell cytotoxicity, THP-1 EC50 [9] [pM]
4-3ab (bispecific antibody, human IgG1, kappa, L234A L235A, LILRB4 arm from H7K3m5, CD3 arm from WO2019057099; human IgG1 constant domains with knob-in-hole and effector-reducing mutations; also called first-generation LILRB4/CD3 bispecific antibody No. 1) heavy 1: not shown heavy 2: EVQLVESGGGLVQPGGSLRLSCAASGFSLSSSYWISWVRQAPGKGLEWIGSIDSGSVGITYYATWVKGRFTISRDNSKNTLYLQMNSLRAEDTAVYYCARHGDNWALDLWGQGTLVTVSSASTKGPSVFPLAPSSKSTSGGTAALGCLVKDYFPEPVTVSWNSGALTSGVHTFPAVLQSSGLYSLSSVVTVPSSSLGTQTYICNVNHKPSNTKVDKRVEPKSCDKTHTCPPCPAPEAAGGPSVFLFPPKPKDTLMISRTPEVTCVVVDVSHEDPEVKFNWYVDGVEVHNAKTKPREEQYNSTYRVVSVLTVLHQDWLNGKEYKCKVSNKALPAPIEKTISKAKGQPREPQVCTLPPSREEMTKNQVSLSCAVKGFYPSDIAVEWESNGQPENNYKTTPPVLDSDGSFFLVSKLTVDKSRWQQGNVFSCSVMHEALHNHYTQKSLSLSPG light 1: DIVMTQSPDSLAVSLGERATINCKSSQSLLNSRTRKNYLAWYQQKPGQPPKLLIYWASTRQSGVPDRFSGSGSGTDFTLTISSLQAEDVAVYYCTQSHTLRTFGGGTKVEIKPDIQNPDPAVYQLRDSKSSDKSVCLFTDFDSQTQVSQSKDSDVYITDKCVLDMRSMDFKSNSAVAWSQKSDFACANAFQNSIIPEDTFFPSPESS light 2: DIQMTQSPSTLSASVGDRVTITCRASQSISSWLAWYQQKPGKAPKLLIYKASTLASGVPSRFSGSGSGTEFTLTISSLQPDDFATYYCQHGYIRGDLDNVFGGGTKVEIKRTVAAPSVFIFPPSDEQLKSGTASVVCLLNNFYPREAKVQWKVDNALQSGNSQESVTEQDSKDSTYSLSSTLTLSKADYEKHKVYACEVTHQGLSSPVTKSFNRGEC	190	43	41	13	49600	~800							9.4		98	0.36			
4-3ab Q1E S91A (bispecific antibody, human IgG1, kappa, L234A L235A, Second-generation 1+1 bispecific, expressed in CHO-K1; also called Bispecific 2; 4-3ab (second generation)) heavy 1: not shown heavy 2: EVQLVESGGGLVQPGGSLRLSCAASGFSLSSSYWISWVRQAPGKGLEWIGSIDSGSVGITYYATWVKGRFTISRDNSKNTLYLQMNSLRAEDTAVYYCARHGDNWALDLWGQGTLVTVSSASTKGPSVFPLAPSSKSTSGGTAALGCLVKDYFPEPVTVSWNSGALTSGVHTFPAVLQSSGLYSLSSVVTVPSSSLGTQTYICNVNHKPSNTKVDKRVEPKSCDKTHTCPPCPAPEAAGGPSVFLFPPKPKDTLMISRTPEVTCVVVDVSHEDPEVKFNWYVDGVEVHNAKTKPREEQYNSTYRVVSVLTVLHQDWLNGKEYKCKVSNKALPAPIEKTISKAKGQPREPQVCTLPPSREEMTKNQVSLSCAVKGFYPSDIAVEWESNGQPENNYKTTPPVLDSDGSFFLVSKLTVDKSRWQQGNVFSCSVMHEALHNHYTQKSLSLSPG light 1: DIVMTQSPDSLAVSLGERATINCKSSQSLLNSRTRKNYLAWYQQKPGQPPKLLIYWASTRQSGVPDRFSGSGSGTDFTLTISSLQAEDVAVYYCTQSHTLRTFGGGTKVEIKPDIQNPDPAVYQLRDSKSSDKSVCLFTDFDSQTQVSQSKDSDVYITDKCVLDMRSMDFKSNSAVAWSQKSDFACANAFQNSIIPEDTFFPAPESS light 2: DIQMTQSPSTLSASVGDRVTITCRASQSISSWLAWYQQKPGKAPKLLIYKASTLASGVPSRFSGSGSGTEFTLTISSLQPDDFATYYCQHGYIRGDLDNVFGGGTKVEIKRTVAAPSVFIFPPSDEQLKSGTASVVCLLNNFYPREAKVQWKVDNALQSGNSQESVTEQDSKDSTYSLSSTLTLSKADYEKHKVYACEVTHQGLSSPVTKSFNRGEC							~854000	70	9530	840	100	1300					26	2.5	4.3

Continued, in another order:

Kd [1] [pM]	Monocyte (max %), Donor 1 [2] [%]	Monocyte (max %), Donor 2 [2] [%]	Monocyte (max %), Donor 3 [2] [%]	Kd [3] [pM]	EC50 (read off the curve) [4] [pM]	EC50 (CD3 on Jurkat cells) [pM]	Kd [5] [pM]	Kd [6] [pM]	Kd [7] [pM]	Kd [8] [pM]	EC50 [10] [pM]	Binder	Monocyte killing EC50, Donor 2 [2] [pM]	Monocyte killing EC50, Donor 3 [2] [pM]	T-cell cytotoxicity, THP-1 (max %) [2] [%]	T-cell cytotoxicity, THP-1 EC50 [2] [pM]	Autologous monocyte killing EC50 [9] [pM]	T-cell cytotoxicity, MV4-11 EC50 [9] [pM]	T-cell cytotoxicity, THP-1 EC50 [9] [pM]
270	43	34	32.5	33400	~400							4ab-3 (bispecific antibody, human IgG1, kappa, L234A L235A, also called first-generation LILRB4/CD3 bispecific antibody No. 2) heavy 1: not shown heavy 2: EVQLVESGGGLVQPGGSLRLSCAASGFSLSSSYWISWVRQAPGKGLEWIGSIDSGSVGITYYATWVKGRFTISRDNSKNTLYLQMNSLRAEDTAVYYCARHGDNWALDLWGQGTLVTVLEDLKNVFPPEVAVFEPSEAEISHTQKATLVCLATGFYPDHVELSWWVNGKEVHSGVCTDPQPLKEQPALQDSRYALSSRLRVSATFWQNPRNHFRCQVQFYGLSENDEWTQDRAKPVTQIVSAEAWGRASDKTHTCPPCPAPEAAGGPSVFLFPPKPKDTLMISRTPEVTCVVVDVSHEDPEVKFNWYVDGVEVHNAKTKPREEQYNSTYRVVSVLTVLHQDWLNGKEYKCKVSNKALPAPIEKTISKAKGQPREPQVCTLPPSREEMTKNQVSLSCAVKGFYPSDIAVEWESNGQPENNYKTTPPVLDSDGSFFLVSKLTVDKSRWQQGNVFSCSVMHEALHNHYTQKSLSLSPG light 1: not shown light 2: DIQMTQSPSTLSASVGDRVTITCRASQSISSWLAWYQQKPGKAPKLLIYKASTLASGVPSRFSGSGSGTEFTLTISSLQPDDFATYYCQHGYIRGDLDNVFGGGTKVEIKPDIQNPDPAVYQLRDSKSSDKSVCLFTDFDSQTQVSQSKDSDVYITDKCVLDMRSMDFKSNSAVAWSQKSDFACANAFQNSIIPEDTFFPSPESS	29	9.25	98.6	0.084			
						~257000	260	8820	890	70	700	4ab3-4ab S91A (bispecific antibody, human IgG1, kappa, L234A L235A, Second-generation 2+1 bispecific, expressed in CHO-K1; also called Bispecific 1; 4ab3-4ab (second generation)) heavy 1: not shown heavy 2: EVQLVESGGGLVQPGGSLRLSCAASGFSLSSSYWISWVRQAPGKGLEWIGSIDSGSVGITYYATWVKGRFTISRDNSKNTLYLQMNSLRAEDTAVYYCARHGDNWALDLWGQGTLVTVLEDLKNVFPPEVAVFEPSEAEISHTQKATLVCLATGFYPDHVELSWWVNGKEVHSGVCTDPQPLKEQPALQDSRYALSSRLRVSATFWQNPRNHFRCQVQFYGLSENDEWTQDRAKPVTQIVSAEAWGRASDKTHTCPPCPAPEAAGGPSVFLFPPKPKDTLMISRTPEVTCVVVDVSHEDPEVKFNWYVDGVEVHNAKTKPREEQYNSTYRVVSVLTVLHQDWLNGKEYKCKVSNKALPAPIEKTISKAKGQPREPQVCTLPPSREEMTKNQVSLSCAVKGFYPSDIAVEWESNGQPENNYKTTPPVLDSDGSFFLVSKLTVDKSRWQQGNVFSCSVMHEALHNHYTQKSLSLSPG light 1: not shown light 2: DIQMTQSPSTLSASVGDRVTITCRASQSISSWLAWYQQKPGKAPKLLIYKASTLASGVPSRFSGSGSGTEFTLTISSLQPDDFATYYCQHGYIRGDLDNVFGGGTKVEIKPDIQNPDPAVYQLRDSKSSDKSVCLFTDFDSQTQVSQSKDSDVYITDKCVLDMRSMDFKSNSAVAWSQKSDFACANAFQNSIIPEDTFFPAPESS					5.9	0.034	0.5
